Experimental data as given in patent US20260184766A1.

Assays:
[1] = molecular target: SARS-CoV-2 S variant 484K carried by pseudotyped virus (SARS-CoV-2), P0DTC2; assay: cell-based or functional assay
[2] = molecular target: SARS-CoV-2 S variant K417N/E484K/N501Y (B.1.351, SA variant; beta lineage) carried by pseudotyped virus (SARS-CoV-2 B.1.351), P0DTC2; assay: cell-based or functional assay
[3] = molecular target: SARS CoV-2 omicron variant recombinant stabilized spike trimer (SARS-CoV-2 omicron variant)
[4] = molecular target: SARS CoV-2 omicron variant spike RBD (SARS-CoV-2 omicron variant); assay: ELISA on omicron variant RBD (panel RBD), OD450

B1: SKD chimeric bovine-human IgG1 (ultralong CDR3) (antibody)
VH: QVQLRESGPSLVKPSQTLSLTCTASGFSLSDKAVGWVRQAPGKALEWLGSIDTGGNTGYNPGLKSRLSITKDNSKSQVSLSVSSVTTEDSATYYCTTVHQRTSEKRSCPGGSSRRYPSGASCDVSGGACACYVSNCRGVLCPTLNEIVAYTYEWHVDAWGQGLLVTVSS
VL: QAVLNQPSSVSGSLGQRVSITCSGSSSNVGNGYVSWYQLIPGSAPRTLIYGDTSRASGVPDRFSGSRSGNTATLTISSLQAEDEADYFCASAEDSSSNAVFGSGTTLTVL
EC50 (pM), pseudovirus luciferase assay [1]: > 1000 pM | EC50 (pM), pseudovirus luciferase assay [2]: > 1000 pM | Neutralization of Pseudovirus (ng/mL; parameter not named) [2]: > 1000 ng/mL

B2: SKM chimeric bovine-human IgG1 (ultralong CDR3) (antibody)
VH: QVQLRESGPSLVKPSQTLSLTCTASGFSLSDKAVGWVRQAPGKALEWLGSIDTGGNTGYNPGLKSRLSITKDNSKSQVSLSVSSVTTEDSATYYCTTVHQETLRSCPDGYIDNSGCTADWGCAALDCWRRRFGYHSTDPSHYTGATYIYTYSLHIDAWGQGLLVTVSS
VL: QAVLNQPSSVSGSLGQRVSITCSGSSSNVGNGYVSWYQLIPGSAPRTLIYGDTSRASGVPDRFSGSRSGNTATLTISSLQAEDEADYFCASAEDSSSNAVFGSGTTLTVL
EC50 (pM), pseudovirus luciferase assay [1]: > 1000 pM | EC50 (pM), pseudovirus luciferase assay [2]: > 1000 pM | Neutralization of Pseudovirus (ng/mL; parameter not named) [2]: > 1000 ng/mL

B3: R4C1 chimeric bovine-human IgG1 (ultralong CDR3) (antibody)
VH: QVQLRESGPSLVKPSQTLSLTCTASGFSLSDKAVGWVRQAPGKPLEWLGSIDTAENTGYNPGLKSRLSITKDNSKSQVSLSVSSVTTEDSATYYCATVHQKTRKEKNCPDGYIYSSNTASGYDCGVWICRRVGSAFCSRTGDYTSPSEFDIYEFYVEGWGQGLLVTVSS
VL: QAVLNQPSSVSGSLGQRVSITCSGSSSNVGNGYVSWYQLIPGSAPRTLIYGDTSRASGVPDRFSGSRSGNTATLTISSLQAEDEADYFCASAEDSSSNAVFGSGTTLTVL
Neutralization of Pseudovirus (ng/mL; parameter not named) [2]: 375 ng/mL

B4: R2D9 chimeric bovine-human IgG1 (ultralong CDR3) (antibody)
VH: QVQLRESGPSLVKPSQTLSLTCTASGFSLSDKAIGWVRQAPGKALEWLGSIDTRGNTGYNPGLKSRLSITKDSSKSQVSLSVNSVTTEDSATYLCAIVQQITHKTCPNGYNWFDRCCSWDGTCGDGCCSNRAWPSGNGRADSSIGETYGYEFHVAAWGQGLLVTVSS
VL: QAVLNQPSSVSGSLGQRVSITCSGSSSNVGNGYVSWYQLIPGSAPRTLIYGDTSRASGVPDRFSGSRSGNTATLTISSLQAEDEADYFCASAEDSSSNAVFGSGTTLTVL
EC50 (read off the curve) [3]: 400 pM | EC50 (read off the curve) [4]: 400 pM
